Measured values reported in US20230002480A1.

What was measured:
Assay in all cases: cell-based or functional assay
[1] = target: HIV-1 Env of pseudovirus Du422.1 (HIV-1)
[2] = target: HIV-1 Env of pseudovirus 246F C1G (HIV-1)
[3] = target: HIV-1 Env of pseudovirus 0260.v5.c36 (HIV-1)
[4] = target: HIV-1 Env of pseudovirus CNE5 (HIV-1)
[5] = target: HIV-1 Env of pseudovirus 62357_14_D3_4589 (HIV-1)
[6] = target: HIV-1 Env of pseudovirus X1193_c1 (HIV-1)
[7] = target: HIV-1 Env of pseudovirus CAP45.2.00.G3 (HIV-1)
[8] = target: HIV-1 Env of pseudovirus 6540.v4.c1 (HIV-1)
[9] = target: HIV-1 Env of pseudovirus 191955_A11 (HIV-1)
[10] = target: HIV-1 Env of pseudovirus BJOX025000.01.1 (HIV-1)
[11] = target: HIV-1 Env of pseudovirus Du172.17 (HIV-1)
[12] = target: HIV-1 Env of pseudovirus Q842.d12 (HIV-1)
[13] = target: HIV-1 Env of pseudovirus C3347.c11 (HIV-1)
[14] = target: HIV-1 Env of pseudovirus T251-18 (HIV-1)
[15] = target: HIV-1 Env of pseudovirus 6480.v4.c25 (HIV-1)
[16] = target: HIV-1 Env of pseudovirus ZM109F.PB4 (HIV-1)
[17] = target: HIV-1 Env of pseudovirus CNE58 (HIV-1)
[18] = target: HIV-1 Env of pseudovirus X1632_S2_B10 (HIV-1)
[19] = target: HIV-1 Env of pseudovirus CNE30 (HIV-1)
[20] = target: HIV-1 Env of pseudovirus 231966.c02 (HIV-1)
[21] = target: HIV-1 Env of pseudovirus ZM214M.PL15 (HIV-1)
[22] = target: HIV-1 Env of pseudovirus Ce0682_E4 (HIV-1)
[23] = target: HIV-1 Env of pseudovirus BJOX010000.06.2 (HIV-1)
[24] = target: HIV-1 Env of pseudovirus Du156.12 (HIV-1)
[25] = target: HIV-1 Env of pseudovirus 1394C9G1(Rev-) (HIV-1)
[26] = target: HIV-1 Env of pseudovirus P0402_c2_11 (HIV-1)
[27] = target: HIV-1 Env of pseudovirus THRO4156.18 (HIV-1)
[28] = target: HIV-1 Env of pseudovirus CNE20 (HIV-1)
[29] = target: HIV-1 Env of pseudovirus T257-31 (HIV-1)
[30] = target: HIV-1 Env of pseudovirus C4118.c09 (HIV-1)
[31] = target: HIV-1 Env of pseudovirus Ce2010_F5 (HIV-1)
[32] = target: HIV-1 Env of pseudovirus C1080.c03 (HIV-1)
[33] = target: HIV-1 Env of pseudovirus 6952.v1.c20 (HIV-1)
[34] = target: HIV-1 Env of pseudovirus R3265.c06 (HIV-1)
[35] = target: HIV-1 Env of pseudovirus 6244_13_B5_4576 (HIV-1)
[36] = target: HIV-1 Env of pseudovirus SC422661.8 (HIV-1)
[37] = target: HIV-1 Env of pseudovirus 1054_07_TC4_1499 (HIV-1)

PGT128 (antibody)
IC50 [1]: 0.039 µg/mL | IC80 [1]: 0.113 µg/mL | IC50 [2]: 0.005 µg/mL | IC80 [2]: 0.014 µg/mL | IC50 [3]: 0.058 µg/mL | IC80 [3]: 0.162 µg/mL | IC50, titer in TZM.bl cells [4]: 0.018 µg/mL | IC80, titer in TZM.bl cells [4]: 0.253 µg/mL | IC50 [5]: 1.14 µg/mL | IC80 [5]: > 50 µg/mL | IC50, titer in TZM.bl cells [6]: > 50 µg/mL | IC80, titer in TZM.bl cells [6]: > 50 µg/mL | IC50 [7]: > 50 µg/mL | IC80 [7]: > 50 µg/mL | IC50, titer in TZM.bl cells [8]: 11.8 µg/mL | IC80, titer in TZM.bl cells [8]: > 50 µg/mL | IC50 [9]: 14.2 µg/mL | IC80 [9]: > 50 µg/mL | IC50, titer in TZM.bl cells [10]: > 50 µg/mL | IC80, titer in TZM.bl cells [10]: > 50 µg/mL | IC50 [11]: 0.028 µg/mL | IC80 [11]: 0.08 µg/mL | IC50 [12]: 0.008 µg/mL | IC80 [12]: 0.102 µg/mL | IC50, titer in TZM.bl cells [13]: 0.001 µg/mL | IC80, titer in TZM.bl cells [13]: 0.007 µg/mL | IC50, titer in TZM.bl cells [14]: > 50 µg/mL | IC80, titer in TZM.bl cells [14]: > 50 µg/mL | IC50, titer in TZM.bl cells [15]: 0.003 µg/mL | IC80, titer in TZM.bl cells [15]: 0.019 µg/mL | IC50 [16]: > 50 µg/mL | IC80 [16]: > 50 µg/mL | IC50 [17]: 13.8 µg/mL | IC80 [17]: > 50 µg/mL | IC50, titer in TZM.bl cells [18]: > 50 µg/mL | IC80, titer in TZM.bl cells [18]: > 50 µg/mL | IC50 [19]: 2.06 µg/mL | IC80 [19]: 12.6 µg/mL | IC50, titer in TZM.bl cells [20]: 3.2 µg/mL | IC80, titer in TZM.bl cells [20]: > 50 µg/mL | IC50 [21]: 1.5 µg/mL | IC80 [21]: 29.4 µg/mL | IC50 [22]: > 50 µg/mL | IC80 [22]: > 50 µg/mL | IC50, titer in TZM.bl cells [23]: 4.82 µg/mL | IC80, titer in TZM.bl cells [23]: > 50 µg/mL | IC50 [24]: 0.017 µg/mL | IC80 [24]: 0.046 µg/mL | IC50 [25]: 0.011 µg/mL | IC80 [25]: 0.034 µg/mL | IC50, titer in TZM.bl cells [26]: 0.007 µg/mL | IC80, titer in TZM.bl cells [26]: 0.02 µg/mL | IC50 [27]: > 50 µg/mL | IC80 [27]: > 50 µg/mL | IC50 [28]: 0.001 µg/mL | IC80 [28]: 0.004 µg/mL | IC50 [29]: > 50 µg/mL | IC80 [29]: > 50 µg/mL | IC50, titer in TZM.bl cells [30]: > 50 µg/mL | IC80, titer in TZM.bl cells [30]: > 50 µg/mL | IC50 [31]: > 50 µg/mL | IC80 [31]: > 50 µg/mL | IC50, titer in TZM.bl cells [32]: 0.283 µg/mL | IC80, titer in TZM.bl cells [32]: 2.06 µg/mL | IC50, titer in TZM.bl cells [33]: > 50 µg/mL | IC80, titer in TZM.bl cells [33]: > 50 µg/mL | IC50, titer in TZM.bl cells [34]: > 50 µg/mL | IC80, titer in TZM.bl cells [34]: > 50 µg/mL | IC50 [35]: 0.02 µg/mL | IC80 [35]: 0.076 µg/mL | IC50 [36]: 1.08 µg/mL | IC80 [36]: 18.4 µg/mL | IC50 [37]: 0.035 µg/mL | IC80 [37]: 0.312 µg/mL

PGT145 (antibody)
IC50 [1]: 22.6 µg/mL | IC80 [1]: > 50 µg/mL | IC50 [2]: > 50 µg/mL | IC80 [2]: > 50 µg/mL | IC50 [3]: > 50 µg/mL | IC80 [3]: > 50 µg/mL | IC50, titer in TZM.bl cells [4]: 0.001 µg/mL | IC80, titer in TZM.bl cells [4]: 0.013 µg/mL | IC50 [5]: > 50 µg/mL | IC80 [5]: > 50 µg/mL | IC50, titer in TZM.bl cells [6]: 0.013 µg/mL | IC80, titer in TZM.bl cells [6]: 0.091 µg/mL | IC50 [7]: 0.001 µg/mL | IC80 [7]: 0.007 µg/mL | IC50, titer in TZM.bl cells [8]: 0.08 µg/mL | IC80, titer in TZM.bl cells [8]: 5.09 µg/mL | IC50 [9]: < 0.001 µg/mL | IC80 [9]: < 0.001 µg/mL | IC50, titer in TZM.bl cells [10]: 6.63 µg/mL | IC80, titer in TZM.bl cells [10]: > 50 µg/mL | IC50 [11]: > 50 µg/mL | IC80 [11]: > 50 µg/mL | IC50 [12]: 0.032 µg/mL | IC80 [12]: 0.552 µg/mL | IC50, titer in TZM.bl cells [13]: 0.005 µg/mL | IC80, titer in TZM.bl cells [13]: 0.044 µg/mL | IC50, titer in TZM.bl cells [14]: 0.351 µg/mL | IC80, titer in TZM.bl cells [14]: 1.39 µg/mL | IC50, titer in TZM.bl cells [15]: > 50 µg/mL | IC80, titer in TZM.bl cells [15]: > 50 µg/mL | IC50 [16]: 0.042 µg/mL | IC80 [16]: 0.234 µg/mL | IC50 [17]: 0.183 µg/mL | IC80 [17]: 7.41 µg/mL | IC50, titer in TZM.bl cells [18]: 0.012 µg/mL | IC80, titer in TZM.bl cells [18]: 2.03 µg/mL | IC50 [19]: > 50 µg/mL | IC80 [19]: > 50 µg/mL | IC50, titer in TZM.bl cells [20]: < 0.001 µg/mL | IC80, titer in TZM.bl cells [20]: 0.01 µg/mL | IC50 [21]: > 50 µg/mL | IC80 [21]: > 50 µg/mL | IC50 [22]: 33.6 µg/mL | IC80 [22]: > 50 µg/mL | IC50, titer in TZM.bl cells [23]: > 50 µg/mL | IC80, titer in TZM.bl cells [23]: > 50 µg/mL | IC50 [24]: 0.001 µg/mL | IC80 [24]: 0.018 µg/mL | IC50 [25]: 0.001 µg/mL | IC80 [25]: 0.005 µg/mL | IC50, titer in TZM.bl cells [26]: 0.009 µg/mL | IC80, titer in TZM.bl cells [26]: 0.038 µg/mL | IC50 [27]: 0.01 µg/mL | IC80 [27]: 0.029 µg/mL | IC50 [28]: 0.318 µg/mL | IC80 [28]: 6.97 µg/mL | IC50 [29]: 5.18 µg/mL | IC80 [29]: > 50 µg/mL | IC50, titer in TZM.bl cells [30]: < 0.001 µg/mL | IC80, titer in TZM.bl cells [30]: 0.004 µg/mL | IC50 [31]: > 50 µg/mL | IC80 [31]: > 50 µg/mL | IC50, titer in TZM.bl cells [32]: 0.024 µg/mL | IC80, titer in TZM.bl cells [32]: 0.146 µg/mL | IC50, titer in TZM.bl cells [33]: 3.12 µg/mL | IC80, titer in TZM.bl cells [33]: > 50 µg/mL | IC50, titer in TZM.bl cells [34]: 0.037 µg/mL | IC80, titer in TZM.bl cells [34]: 0.227 µg/mL | IC50 [35]: 7.27 µg/mL | IC80 [35]: 44.5 µg/mL | IC50 [36]: 0.024 µg/mL | IC80 [36]: 0.082 µg/mL | IC50 [37]: > 50 µg/mL | IC80 [37]: > 50 µg/mL
